Values of other authors as cited in paper PMC4926285.

Biological target: insulin receptor (site 1) site 1 (L1 and carboxy-terminal α-chain) (Homo sapiens) (UniProt P06213)
Chain of UniProt P06213 (P06213 28-182): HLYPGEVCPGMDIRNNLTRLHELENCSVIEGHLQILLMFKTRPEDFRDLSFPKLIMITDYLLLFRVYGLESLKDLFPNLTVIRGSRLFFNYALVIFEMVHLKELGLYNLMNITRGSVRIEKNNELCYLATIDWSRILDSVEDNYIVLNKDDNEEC

Chain of insulin (P01308 90-110): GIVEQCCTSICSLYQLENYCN

Kd: 6.4 nM
Substance: insulin (from UniProt P01308)
